Values quoted from earlier work, collected in paper PMC5530503.
pKd: −log10 of the molar value.

Target: VEGFR2 (Homo sapiens) (UniProt P35968)
Chain of UniProt P35968 (P35968 20-1356): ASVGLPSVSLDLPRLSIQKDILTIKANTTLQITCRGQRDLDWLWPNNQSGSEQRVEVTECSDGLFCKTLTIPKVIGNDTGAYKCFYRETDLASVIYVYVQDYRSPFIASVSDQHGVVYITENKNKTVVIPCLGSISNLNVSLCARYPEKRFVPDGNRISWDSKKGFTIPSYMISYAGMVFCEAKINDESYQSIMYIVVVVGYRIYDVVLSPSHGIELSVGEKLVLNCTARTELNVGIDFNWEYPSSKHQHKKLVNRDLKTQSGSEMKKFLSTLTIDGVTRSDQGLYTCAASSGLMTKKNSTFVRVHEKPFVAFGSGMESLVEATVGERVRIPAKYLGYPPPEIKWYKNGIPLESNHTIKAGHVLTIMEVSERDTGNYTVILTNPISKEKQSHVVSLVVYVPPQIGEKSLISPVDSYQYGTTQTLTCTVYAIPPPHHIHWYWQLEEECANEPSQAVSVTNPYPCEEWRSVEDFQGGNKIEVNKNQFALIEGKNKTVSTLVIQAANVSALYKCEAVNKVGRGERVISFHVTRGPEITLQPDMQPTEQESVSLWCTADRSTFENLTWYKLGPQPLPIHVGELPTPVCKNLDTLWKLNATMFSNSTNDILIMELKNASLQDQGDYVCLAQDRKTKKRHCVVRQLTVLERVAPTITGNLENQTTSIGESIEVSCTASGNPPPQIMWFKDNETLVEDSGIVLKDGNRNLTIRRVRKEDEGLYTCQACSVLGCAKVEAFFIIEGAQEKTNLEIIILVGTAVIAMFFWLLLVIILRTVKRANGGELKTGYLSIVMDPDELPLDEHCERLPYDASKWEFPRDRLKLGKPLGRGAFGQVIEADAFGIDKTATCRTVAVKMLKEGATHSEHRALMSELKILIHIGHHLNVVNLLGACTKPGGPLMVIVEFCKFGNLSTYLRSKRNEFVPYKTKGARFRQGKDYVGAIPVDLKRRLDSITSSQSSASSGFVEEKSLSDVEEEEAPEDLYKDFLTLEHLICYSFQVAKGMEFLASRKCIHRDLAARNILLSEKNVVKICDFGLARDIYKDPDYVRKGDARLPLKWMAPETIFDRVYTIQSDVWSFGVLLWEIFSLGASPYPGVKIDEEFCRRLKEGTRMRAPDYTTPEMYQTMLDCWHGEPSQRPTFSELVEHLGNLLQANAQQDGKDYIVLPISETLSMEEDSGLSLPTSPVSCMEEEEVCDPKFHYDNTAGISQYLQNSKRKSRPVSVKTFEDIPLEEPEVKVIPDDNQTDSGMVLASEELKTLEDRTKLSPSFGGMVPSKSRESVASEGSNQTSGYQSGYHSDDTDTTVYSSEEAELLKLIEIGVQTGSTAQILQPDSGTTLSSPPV

pKd: 10.43
Substance: VEGF (from UniProt P15692)
